Data: PMC6146392 (Metallomics : integrated biometal science, 2018)
Like-named read-outs stand apart in the source and are kept apart here.

Assays:
Test in all cases: ITC
[1] = molecular target: S.c. Grx3 (residues 36-285, Trx-like and Grx-like domains) (S. cerevisiae)
[2] = molecular target: S.c. Grx3 (residues 36-285, Trx-like and Grx-like domains) (S. cerevisiae); remark: listed apart in the source
[3] = molecular target: T1, H.s. GLRX5 lacking the first 31 amino acids (Δ1-31) (human, UniProt Q86SX6 32-157)
T1 sequence (looked up): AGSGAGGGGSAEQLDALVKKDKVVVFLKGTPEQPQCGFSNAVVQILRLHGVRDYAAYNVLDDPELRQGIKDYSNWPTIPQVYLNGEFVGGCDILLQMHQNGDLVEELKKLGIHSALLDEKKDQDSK

B1: human BOLA3 (residues 25-107, lacking the mitochondrial targeting sequence) (natural protein, UniProt Q53S33 25-107, looked up)
chain: MFATQTEGELRVTQILKEKFPRATAIKVTDISGGCGAMYEIKIESEEFKEKRTVQQHQMVNQALKEEIKEMHGLRIFTSVPKR
Kd [1]: 6.7 µM | stoichiometry N [1]: 0.94 | Ka [2]: 150000 M⁻¹ | dH [2]: -0.787 kcal/mol | stoichiometry N [2]: 0.98 | Ka [3]: 120000 M⁻¹ | dH [3]: -0.518 ± 0.0342 kcal/mol | stoichiometry N [3]: 1.02 ± 0.05
